Source: patent US7994123B2, “Hybrid proteins with ErbB4 extracellular domain and neuregulin heparin-binding domain for targeting” (Wayne State University, priority 2004, dated 2011)
Values joined by “and” are separate entries in the source; they are usually repeats but may differ in a detail not shown here. Identical values can stand only once.

Experiments:
[1] = system: erbB receptor phosphorylation (p185) in L6 cells; experiment: L6 assay: block of NRG-induced erbB receptor phosphorylation (p185); assay type: cell-based; settings: for effect on NRG-induced p185 erbB receptor phosphorylation: comparable amounts of antagonist with 50 pM NRG (IG-EGF form), 45 min
Protocol: (§1) 4. Cell culture: The L6 cells were cultured in DMEM supplemented with 10% fetal calf serum, 1 mM L-glutamine and 1000 U/ml penicillin/streptomycin at 37° C. in 10% CO2 incubator. The HEK293 cells were cultured in DMEM with 10% fetal calf serum, 1 mM L-glutamine, 2 mM sodium pyruvate, 0.1 mM non-essential amino acids, 1000 U/ml penicillin/streptomycin at 37° C. in 10% CO2 incubator. The selective antibiotics Geneticin 200 μg/ml (Gibco-Invitrogen) was added to the cell cultures of stably transfected HEK293 cells harboring the NRG antagonists. 5. Stable expression of NRG antagonists in HEK293 cells: HEK293 cells were cultured in […] flasks to 80% confluence and transfected with the four NRG antagonist constructs using lipofectamine 2000 (Invitrogen Life Science) as instructed. The antibiotic Geneticin was then added at a concentration of 400 μg/ml to the transfected HEK293 cells to select the positive antagonist transfected cells. After three weeks of Geneticin selection, the transfected HEK293 cells were diluted and plated in 96 well plates to yield single positive clones. The single clones that expressed the highest levels of antagonists (confirmed by western blot using HA antibody) were then maintained in culture media with 200 μg/ml Geneticin. Optimem I (Gibco-Invitrogen) was applied to the stably transfected NRG antagonist cell lines at 37° C. in 10% CO2 incubator for 2 days. The conditioned Optimem I media was then used in the following experiments. 6. Heparin column binding: The conditioned media containing the four NRG antagonists was passed through the heparin column to allow binding to heparin. The excessive unbound antagonist proteins were washed off by 1×PBS twice. The antagonist proteins were then eluted by increasing concentration of NaCl (0.25, 0.3, 0.4, 0.5, 0.6 and 1M). The flow through solution from each step was examined by anti-HA western blots, as described later, to determine heparin binding ability of the antagonists. 7. Purification and quantitation of recombinant proteins: The NRG antagonists were purified by anti-HA affinity matrix (3F10) (rat mAb) according to manufacturer's instructions. Briefly, the column was equilibrated with buffer containing 20 mM Tris pH 7.5, 0.1 M NaCl, 0.1 M EDTA, and each antagonist in conditioned medium was applied individually to the anti-HA affinity matrix. Excess unbound antagonist proteins were washed with 20 volume of washing buffer (20 mM Tris pH 7.5, 0.1 M NaCl, 0.1 M EDTA and 0.05% Tween 20). The bound NRG antagonists were eluted with 0.1 M glycine (pH 2). The purified recombinant protein was then quantified using a BioRad Protein Assay kit (Bio-Rad, Hercules, Calif.) 8. Silver stain: Both the conditioned media and the purified NRG antagonists were resolved on 7.5% reducing SDS-polyacrylamide gels. The gel was fixed with 30% ethanol and 10% acetic acid for 30 min. 10% ethanol and ultrapure water were used subsequently to wash the gel before staining with SilverSNAP stain solution with enhancer for 30 min. The gel was then developed using SilverSNAP developer solution with enhancer. 5% acetic acid was used to stop the reaction when the desired band intensity was reached. The gel was dried on filter paper using a vacuum gel dyer. 9. […] Positive control L6 cells were treated with 50 pM NRG alone. L6 cell lysates were prepared and run on 5% SDS-PAGE gel. Western blots of erbB receptor phosphorylation were performed using 4G10 antibody. 10. Western blot: Western blots were performed on both conditioned NRG antagonist media and the antagonist-treated L6 cells. The antagonist proteins and the L6 cells were solubilized in SDS sample buffer and boiled for 5 min as described above (see also Li et al., supra). The NRG antagonists run on 7.5% SDS-PAGE gel were detected by anti-HA mAb HA.11. Phosphotyrosine mAb 4G10 was used to detect phosphorylated erbB receptor (p185) in L6 cell western blot analysis following resolution on overrun 5% reducing SDS-polyacrylamide gels. […]

Heparin column binding = settings: for binding to heparin column: conditioned media, anti-HA western blot of flow through and elution; for NaCl concentration needed to elute from heparin column: elution with increasing NaCl (0.25-1 M)
Protocol: as §1

| Molecule | effect on NRG-induced p185 erbB receptor phosphorylation [1] | binding to heparin column (Heparin column binding) | NaCl concentration needed to elute from heparin column (Heparin column binding) | sustained blockade of neuregulin signaling (p185 phosphorylation) ([1]; preincubated with L6 muscle cells one hour, thoroughly washed before adding recombinant neuregulin) |
| --- | --- | --- | --- | --- |
| B4-HBD-HA: fusion polypeptide: erbB4 extracellular domain with NRG heparin-binding domain C-terminal, HA tag (protein, left off: small tags and cut ends) VCAGTENKLSSLSDLEQQYRALRKYYENCEVVMGNLEITSIEHNRDLSFLRSVREVTGYVLVALNQFRYLPLENLRIIRGTKLYEDRYALAIFLNYRKDGNFGLQELGLKNLTEILNGGVYVDQNKFLCYADTIHWQDIVRNPWPSNLTLVSTNGSSGCGRCHKSCTGRCWGPTENHCQTLTRTVCAEQCDGRCYGPYVSDCCHRECAGGCSGPKDTDCFACMNFNDSGACVTQCPQTFVYNPTTFQLEHNFNAKYTYGAFCVKKCPHNFVVDSSSCVRACPSSKMEVEENGIKMCKPCTDICPKACDGIGTGSLMSAQTVDSSNIDKFINCTKINGNLIFLVTGIHGDPYNAIEAIDPEKLNVFRTVREITGFLNIQSWPPNMTDFSVFSNLVTIGGRVLYSGLSLLILKQQGITSLQFQSLKEISAGNIYITDNSNLCYYHTINWTTLFSTINQRIVIRDNRKAENCTAEGMVCNHLCSSDGCWGPGPDQCLSCRRFSRGRICIESCNLYDGEFREFENGSICVECDPQCEKMEDGLLTCHGPGPDNCTKCSHFKDGPNCVEKCPDGLQGANSFIFKYADPDRECHPCHPNCTQGCNGPTSHDCIYYPWTGHSTLPQHAKNSAAGSQSPALPPRLKEMKSQESAAGSKLVLRCETSSEYSSLRFKWFKNGNELNRKNKPQNIKIQKKPGKSELRINKASLADSGEYMCKVISKLGNDSASANITIVE | dramatically reduced erbB receptor activation | bound the heparin column | 0.4 to 0.5 M | – |
| HBD-S-B4-HA: fusion polypeptide: NRG heparin-binding domain, glycosylated spacer, erbB4 extracellular domain, C-terminal HA tag (protein, left off: small tags and cut ends) QSGYKKKERGSGKKPESAAGSQSPALPPRLKEMKSQESAAGSKLVLRCETSSEYSSLRFKWFKPNGNELNRKNKQNIKIQKKPGKSELRINKASLADSGEYMCKVISKLGNDSASANITIVESNEIITGMPASTEGAYVSSESPIRISVSTEGANTSSSTSTSTTGTSGTQSVCAGTENKLSSLSDLEQQYRALRKYYENCEVVMGNLEITSIEHNRDLSFLRSVREVTGYVLVALNQFRYLPLENLRIIRGTKLYEDRYALAIFLNYRKDGNFGLQELGLKNLTEILNGGVYVDQNKFLCYADTIHWQDIVRNPWPSNLTLVSTNGSSGCGRCHKSCTGRCWGPTENHCQTLTRTVCAEQCDGRCYGPYVSDCCHRECAGGCSGPKDTDCFACMNFNDSGACVTQCPQTFVYNPTTFQLEHNFNAKYTYGAFCVKKCPHNFVVDSSSCVRACPSSKMEVEENGIKMCKPCTDICPKACDGIGTGSLMSAQTVDSSNIDKFINCTKINGNLIFLVTGIHGDPYNAIEAIDPEKLNVFRTVREITGFLNIQSWPPNMTDFSVFSNLVTIGGRVLYSGLSLLILKQQGITSLQFQSLKEISAGNIYITDNSNLCYYHTINWTTLFSTINQRIVIRDNRKAENCTAEGMVCNHLCSSDGCWGPGPDQCLSCRRFSRGRICIESCNLYDGEFREFENGSICVECDPQCEKMEDGLLTCHGPGPDNCTKCSHFKDGPNCVEKCPDGLQGANSFIFKYADPDRECHPCHPNCTQGCNGPTSHDCIYYPWTGHSTLPQHAKN | dramatically reduced erbB receptor activation | bound the heparin column | > 1 M and 1 M | – |
| B4-HA: extracellular domain of erbB4 expressed alone without the HBD, HA tag (control) (protein, left off: small tags and cut ends) VCAGTENKLSSLSDLEQQYRALRKYYENCEVVMGNLEITSIEHNRDLSFLRSVREVTGYVLVALNQFRYLPLENLRIIRGTKLYEDRYALAIFLNYRKDGNFGLQELGLKNLTEILNGGVYVDQNKFLCYADTIHWQDIVRNPWPSNLTLVSTNGSSGCGRCHKSCTGRCWGPTENHCQTLTRTVCAEQCDGRCYGPYVSDCCHRECAGGCSGPKDTDCFACMNFNDSGACVTQCPQTFVYNPTTFQLEHNFNAKYTYGAFCVKKCPHNFVVDSSSCVRACPSSKMEVEENGIKMCKPCTDICPKACDGIGTGSLMSAQTVDSSNIDKFINCTKINGNLIFLVTGIHGDPYNAIEAIDPEKLNVFRTVREITGFLNIQSWPPNMTDFSVFSNLVTIGGRVLYSGLSLLILKQQGITSLQFQSLKEISAGNIYITDNSNLCYYHTINWTTLFSTINQRIVIRDNRKAENCTAEGMVCNHLCSSDGCWGPGPDQCLSCRRFSRGRICIESCNLYDGEFREFENGSICVECDPQCEKMEDGLLTCHGPGPDNCTKCSHFKDGPNCVEKCPDGLQGANSFIFKYADPDRECHPCHPNCTQGCNGPTSHDCIYYPWTGHSTLPQHAKN | little effect | did not | – | – |
| HBD-B4-HA: fusion polypeptide: NRG heparin-binding domain N-terminal to erbB4 extracellular domain, no spacer, HA tag (protein, left off: small tags and cut ends) SAAGSQSPALPPRLKEMKSQESAAGSKLVLRCETSSEYSSLRFKWFKNGNELNRKNKPQNIKIQKKPGKSELRINKASLADSGEYMCKVISKLGNDSASANITIVEVCAGTENKLSSLSDLEQQYRALRKYYENCEVVMGNLEITSIEHNRDLSFLRSVREVTGYVLVALNQFRYLPLENLRIIRGTKLYEDRYALAIFLNYRKDGNFGLQELGLKNLTEILNGGVYVDQNKFLCYADTIHWQDIVRNPWPSNLTLVSTNGSSGCGRCHKSCTGRCWGPTENHCQTLTRTVCAEQCDGRCYGPYVSDCCHRECAGGCSGPKDTDCFACMNFNDSGACVTQCPQTFVYNPTTFQLEHNFNAKYTYGAFCVKKCPHNFVVDSSSCVRACPSSKMEVEENGIKMCKPCTDICPKACDGIGTGSLMSAQTVDSSNIDKFINCTKINGNLIFLVTGIHGDPYNAIEAIDPEKLNVFRTVREITGFLNIQSWPPNMTDFSVFSNLVTIGGRVLYSGLSLLILKQQGITSLQFQSLKEISAGNIYITDNSNLCYYHTINWTTLFSTINQRIVIRDNRKAENCTAEGMVCNHLCSSDGCWGPGPDQCLSCRRFSRGRICIESCNLYDGEFREFENGSICVECDPQCEKMEDGLLTCHGPGPDNCTKCSHFKDGPNCVEKCPDGLQGANSFIFKYADPDRECHPCHPNCTQGCNGPTSHDCIYYPWTGHSTLPQHAKN | little effect | did not | – | – |
| B4: purified His-tagged erbB4 extracellular domain lacking the HBD (protein, left off: small tags and cut ends, purified His-tagged erbB4 extracellular domain lacking the HBD) VCAGTENKLSSLSDLEQQYRALRKYYENCEVVMGNLEITSIEHNRDLSFLRSVREVTGYVLVALNQFRYLPLENLRIIRGTKLYEDRYALAIFLNYRKDGNFGLQELGLKNLTEILNGGVYVDQNKFLCYADTIHWQDIVRNPWPSNLTLVSTNGSSGCGRCHKSCTGRCWGPTENHCQTLTRTVCAEQCDGRCYGPYVSDCCHRECAGGCSGPKDTDCFACMNFNDSGACVTQCPQTFVYNPTTFQLEHNFNAKYTYGAFCVKKCPHNFVVDSSSCVRACPSSKMEVEENGIKMCKPCTDICPKACDGIGTGSLMSAQTVDSSNIDKFINCTKINGNLIFLVTGIHGDPYNAIEAIDPEKLNVFRTVREITGFLNIQSWPPNMTDFSVFSNLVTIGGRVLYSGLSLLILKQQGITSLQFQSLKEISAGNIYITDNSNLCYYHTINWTTLFSTINQRIVIRDNRKAENCTAEGMVCNHLCSSDGCWGPGPDQCLSCRRFSRGRICIESCNLYDGEFREFENGSICVECDPQCEKMEDGLLTCHGPGPDNCTKCSHFKDGPNCVEKCPDGLQGANSFIFKYADPDRECHPCHPNCTQGCNGPTSHDCIYYPWTGHSTLPQHAKN | – | – | – | no sustained effects |
